What was measured:
GST-tagged SUMO-2 = GST-tagged SUMO-2 (UniProt P61956); test: pull-down; as the plate assay, equal cpm of radiolabeled protein per well, eluted protein counted by liquid scintillation; mean of three experiments, compared with GST alone
GST-tagged SUMO-2(x3) = test: as above
GST-tagged SUMO-2(x3), sequence (main, as listed by the source): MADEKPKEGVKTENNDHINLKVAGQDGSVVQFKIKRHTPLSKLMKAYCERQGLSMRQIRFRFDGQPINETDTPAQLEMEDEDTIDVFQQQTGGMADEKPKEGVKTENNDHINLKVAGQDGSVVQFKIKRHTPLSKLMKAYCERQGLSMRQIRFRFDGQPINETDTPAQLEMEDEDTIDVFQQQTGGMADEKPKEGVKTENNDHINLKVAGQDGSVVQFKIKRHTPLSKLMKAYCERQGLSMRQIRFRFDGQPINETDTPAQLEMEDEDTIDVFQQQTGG

pyruvate kinase fused with the first two MYM-type zinc fingers of ZNF261 (domain or fragment), sequence (Q14202 327-738): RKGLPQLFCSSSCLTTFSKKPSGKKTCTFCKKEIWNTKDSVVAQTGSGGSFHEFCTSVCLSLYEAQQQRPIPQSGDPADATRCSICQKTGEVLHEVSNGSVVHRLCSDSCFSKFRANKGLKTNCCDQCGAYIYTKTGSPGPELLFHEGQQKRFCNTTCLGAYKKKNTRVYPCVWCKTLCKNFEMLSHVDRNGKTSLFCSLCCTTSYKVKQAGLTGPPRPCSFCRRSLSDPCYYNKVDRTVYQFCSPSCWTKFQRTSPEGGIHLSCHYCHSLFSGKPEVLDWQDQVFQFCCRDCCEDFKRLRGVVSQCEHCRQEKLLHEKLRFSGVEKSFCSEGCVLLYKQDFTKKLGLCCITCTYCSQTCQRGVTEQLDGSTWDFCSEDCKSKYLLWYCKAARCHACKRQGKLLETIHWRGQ
pyruvate kinase fused with a single MYM-type zinc finger of ZNF261 (domain or fragment), sequence (Q14202 327-738): as above

| fold increase in binding compared to GST alone (GST-tagged SUMO-2) | fold increase in binding compared to GST alone (GST-tagged SUMO-2(x3)) | fold increase in binding over the single-finger fusion (GST-tagged SUMO-2) | fold increase in binding over the single-finger fusion (GST-tagged SUMO-2(x3)) | Substance |
| --- | --- | --- | --- | --- |
| 1.5 fold | 3 fold | – | – | pyruvate kinase fused with a single MYM-type zinc finger of ZNF261 (domain or fragment) |
| – | – | > 2 fold | > 2 fold | pyruvate kinase fused with the first two MYM-type zinc fingers of ZNF261 (domain or fragment) |

From paper PMC4136804
